± gives the standard deviation of the averaged measurements.
Experiment: total protein half-life in vivo (active degradation + dilution); higher = more stable protein
[1] = E. coli NCM3722 delta-clpP, growth: N-lim chemostat, doubling time 6 h
[2] = E. coli NCM3722 delta-hslV, growth: N-lim chemostat, doubling time 6 h
[3] = E. coli NCM3722 delta-lon, growth: N-lim chemostat, doubling time 6 h
[4] = E. coli NCM3722 delta-smpB, growth: N-lim chemostat, doubling time 6 h
[5] = wild type E. coli NCM3722, growth: C-lim chemostat, doubling time 3 h
[6] = wild type E. coli NCM3722, growth: C-lim chemostat, doubling time 6 h
[7] = wild type E. coli NCM3722, growth: C-lim chemostat, doubling time 12 h
[8] = wild type E. coli NCM3722, growth: N-lim chemostat, doubling time 6 h
[9] = wild type E. coli NCM3722, growth: N-lim chemostat, doubling time 12 h
[10] = wild type E. coli NCM3722, growth: P-lim chemostat, doubling time 6 h
[11] = wild type E. coli NCM3722, growth: P-lim chemostat, doubling time 12 h
[12] = E. coli NCM3722 delta-clpP delta-lon delta-hslV, growth: N-lim chemostat, doubling time 6 h

Row | Sequence | total protein half-life in vivo [1] [h] | total protein half-life in vivo [2] [h] | total protein half-life in vivo [3] [h] | total protein half-life in vivo [4] [h] | total protein half-life in vivo [5] [h] | total protein half-life in vivo [6] [h] | total protein half-life in vivo [7] [h] | total protein half-life in vivo [8] [h] | total protein half-life in vivo [9] [h] | total protein half-life in vivo [10] [h] | total protein half-life in vivo [11] [h] | total protein half-life in vivo [12] [h]
1 | MKYLASFRTTLKASRYMFRALALVLWLLIAFSSVFYIVNALHQRESEIRQEFNLSSDQAQRFIQRTSDVMKELKYIAENRLSAENGVLSPRGRETQADVPAFEPLFADSDCSAMSNTWRGSLESLAWFMRYWRDNFSAAYDLNRVFLIGSDNLCMANFGLRDMPVERDTALKALHERINKYRNAPQDDSGSNLYWISEGPRPGVGYFYALTPVYLANRLQALLGVEQTIRMENFFLPGTLPMGVTILDENGHTLISLTGPESKIKGDPRWMQERSWFGYTEGFRELVLKKNLPPSSLSIVYSVPVDKVLERIRMLILNAILLNVLAGAALFTLARMYERRIFIPAESDALRLEEHEQFNRKIVASAPVGICILRTADGVNILSNELAHTYLNMLTHEDRQRLTQIICGQQVNFVDVLTSNNTNLQISFVHSRYRNENVAICVLVDVSSRVKMEESLQEMAQAAEQASQSKSMFLATVSHELRTPLYGIIGNLDLLQTKELPKGVDRLVTAMNNSSSLLLKIISDILDFSKIESEQLKIEPREFSPREVMNHITANYLPLVVRKQLGLYCFIEPDVPVALNGDPMRLQQVISNLLSNAIKFTDTGCIVLHVRADGDYLSIRVRDTGVGIPAKEVVRLFDPFFQVGTGVQRNFQGTGLGLAICEKLISMMDGDISVDSEPGMGSQFTVRIPLYGAQYPQKKGVEGLSGKRCWLAVRNASLCQFLETSLQRSGIVVTTYEGQEPTPEDVLITDEVVSKKWQGRAVVTFCRRHIGIPLEKAPGEWVHSVAAPHELPALLARIYLIEMESDDPANALPSTDKAVSDNDDMMILVVDDHPINRRLLADQLGSLGYQCKTANDGVDALNVLSKNHIDIVLSDVNMPNMDGYRLTQRIRQLGLTLPVIGVTANALAEEKQRCLESGMDSCLSKPVTLDVIKQTLTLYAERVRKSRDS [P0DMC5] | 6.287 ± 0.034 | 5.76 ± 0.49 | 6.22 ± 0.067 | 5.88 ± 0.48 | 2.98 ± 0.21 | 6.119 ± 0.024 | 13.1 ± 2.3 | 6.01 ± 0.37 | 11.6 ± 0.28 | 6.1 ± 0.12 | 11.8 ± 0.82 | 
2 | MKYVDGFVVAVPADKKDAYREMAAKAAPLFKEFGALRIVECWASDVPDGKVTDFRMAVKAEENEEVVFSWIEYPSKEVRDAANQKMMSDPRMKEFGESMPFDGKRMIYGGFESIIDE [P0AAQ6] | 2.69 ± 0.41 | 3.26 ± 1.4 | 3.82 ± 0.1 | 1.51 ± 0.073 |  | 2.63 ± 0.71 | 2.54 ± 0.65 | 2.14 | 2.62 ± 0.04 | 3.082 ± 0.03 | 6.13 ± 0.85 | 4.294 ± 0.022
3 | MLAFCRSSLKSKKYIIILLALAAIAGLGTHAAWSSNGLPRIDNKTLARLAQQHPVVVLFRHAERCDRSTNQCLSDKTGITVKGTQDARELGNAFSADIPDFDLYSSNTVRTIQSATWFSAGKKLTVDKRLLQCGNEIYSAIKDLQSKAPDKNIVIFTHNHCLTYIAKDKRDATFKPDYLDGLVMHVEKGKVYLDGEFVNH | 5.63 | 4.99 ± 1.1 |  |  | 3 ± 1.2 | 4.93 ± 1.4 |  | 4.21 ± 2.1 |  | 5.09 ± 0.5 |  | > 8
4 | MLAKRIIPCLDVRDGQVVKGVQFRNHEIIGDIVPLAKRYAEEGADELVFYDITASSDGRVVDKSWVSRVAEVIDIPFCVAGGIKSLEDAAKILSFGADKISINSPALADPTLITRLADRFGVQCIVVGIDTWYDAETGKYHVNQYTGDESRTRVTQWETLDWVQEVQKRGAGEIVLNMMNQDGVRNGYDLEQLKKVREVCHVPLIASGGAGTMEHFLEAFRDADVDGALAASVFHKQIINIGELKAYLATQGVEIRIC | 4.15 ± 0.38 | 4.45 ± 0.13 | 4.83 ± 0.12 | 4.317 ± 0.0095 | 2.97 ± 0.2 | 5.53 ± 0.17 | 9.44 ± 0.28 | 4.34 ± 0.0084 | 7.26 ± 0.56 | 5.64 ± 0.13 | 11.6 ± 0.42 | 4.98 ± 0.68
5 | MLAQLTISNFAIVRELEIDFHSGMTVITGETGAGKSIAIDALGLCLGGRAEADMVRTGAARADLCARFSLKDTPAALRWLEENQLEDGHECLLRRVISSDGRSRGFINGTAVPLSQLRELGQLLIQIHGQHAHQLLTKPEHQKFLLDGYANETSLLQEMTARYQLWHQSCRDLAHHQQLSQERAARAELLQYQLKELNEFNPQPGEFEQIDEEYKRLANSGQLLTTSQNALALMADGEDANLQSQLYTAKQLVSELIGMDSKLSGVLDMLEEATIQIAEASDELRHYCDRLDLDPNRLFELEQRISKQISLARKHHVSPEALPQYYQSLLEEQQQLDDQADSQETLALAVTKHHQQALEIARALHQQRQQYAEELAQLITDSMHALSMPHGQFTIDVKFDEHHLGADGADRIEFRVTTNPGQPMQPIAKVASGGELSRIALAIQVITARKMETPALIFDEVDVGISGPTAAVVGKLLRQLGESTQVMCVTHLPQVAGCGHQHYFVSKETDGAMTETHMQSLNKKARLQELARLLGGSEVTRNTLANAKELLAA | 3.53 ± 0.12 |  |  |  |  |  |  |  |  |  | 2.48 | 5.03 ± 0.093
6 | MLARGKTNLKIEEIRMHKHHEIHRVKPLMPALCRIRQGKKVINWETHTLTVDNNQIILFPCGYEFYIENYPEAGLYLAEMLYLPIDLIESFQKLYTVTDQIRNKTSFFLPQNPELIYCWEQLKTSVSRGFSTKIQEHLAMGVLLSLGVNHVNHLLLSYSKQSLISRCYNLLLSEPGTKWTANKVARYLYISVSTLHRRLASEGVSFQSILDDVRLNNALSAIQTTVKPISEIARENGYKCPSRFTERFHNRFNITPREIRKASRE | > 8 |  |  | 3.44 ± 0.094 | 2 ± 0.38 | 3.83 ± 0.19 | 6.07 ± 1.8 | 4.12 ± 0.23 | 7.29 ± 0.94 | 3.65 ± 1.5 | 5.86 ± 1.1 | 5.01 ± 0.22
7 | MLDLFKAIGLGLVVLLPLANPLTTVALFLGLAGNMNSAERNRQSLMASVYVFAIMMVAYYAGQLVMDTFGISIPGLRIAGGLIVAFIGFRMLFPQQKAIDSPEAKSKSEELEDEPSANIAFVPLAMPSTAGPGTIAMIISSASTVRQSSTFADWVLMVAPPLIFFLVAVILWGSLRSSGAIMRLVGKGGIEAISRLMGFLLVCMGVQFIINGILEIIKTYH [P0AEY1] | 6.57 ± 0.74 | 5.91 | 6.14 ± 0.6 | 6.12 ± 0.25 |  | 5.73 ± 0.56 | 11.1 ± 0.56 |  | 10.7 | 6.23 ± 0.11 | 13 ± 1 | 

— the supplement of paper PMC11246515
